These results are taken from publication doi:10.1101/2021.09.08.459485 (2021).

For test [1], the target named is T1, SARS-CoV-2 Spike protein peptide on HLA-DPB1*04:01 (human).
T1 peptide: TFEYVSQPFLMDLE
Nature of the test: multimer staining.

Test [2] addresses T2, SARS-CoV-2 Spike protein peptide on HLA-DPB1*04:01 (human).
T2 peptide: CTFEYVSQPFLMDLE
As to the kind of experiment: activation reporter or marker.

B1: TCR6.3 (TCR)
alpha TRAV35 TRAJ42 CDR3: CAGMNYGGSQGNLIF
beta TRBV6-3 TRBJ1-2 CDR3: CASSYRGAYGYTF
Take B1: the binding result in test [1] and in test [2] was “recognises” in each case.

B2: TCR4.1 (TCR)
alpha TRAV35 TRAJ42 CDR3: CAGMNYGGSQGNLIF
beta TRBV4-1 TRBJ1-2 CDR3: CASSQGVGYTF
For B2, the binding result in test [1] and in test [2] was “recognises” throughout.
